In paper PMC9482650, “Quantitative fragmentomics allow affinity mapping of interactomes” (Nature Communications, 2022):

Experiments:
Experiment in all cases: holdup assay
Parameters in all cases: key: below the threshold = too weak to quantify, mostly under pKd 3.1 to 4
Conditions in all cases: plain residues with an end cap or a label only (N-terminal biotin on a linker: ado-ado)
APBA2_1, Q99767 = molecular target: T1, APBA2_1, Q99767
T1 sequence (Q99767 563-664, limits assumed, looked up): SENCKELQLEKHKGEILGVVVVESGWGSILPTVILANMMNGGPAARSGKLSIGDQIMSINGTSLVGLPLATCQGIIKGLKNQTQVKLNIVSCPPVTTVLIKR

ARHGEF11, O15085 = molecular target: T2, ARHGEF11, O15085
T2 sequence (O15085 42-136, limits assumed, looked up): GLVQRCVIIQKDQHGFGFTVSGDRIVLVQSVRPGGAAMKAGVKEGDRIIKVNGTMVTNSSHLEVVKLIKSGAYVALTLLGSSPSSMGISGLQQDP

ARHGEF12, Q9NZN5-2 = molecular target: ARHGEF12, Q9NZN5-2
ARHGEF12, Q9NZN5-2, sequence (Q9NZN5 other isoform, or with tags, fused parts or gaps): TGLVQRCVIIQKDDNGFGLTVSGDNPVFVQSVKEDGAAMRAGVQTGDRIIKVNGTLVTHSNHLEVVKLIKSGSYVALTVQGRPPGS

CASK, O14936 = molecular target: CASK, O14936
CASK, O14936, sequence (O14936 487-570): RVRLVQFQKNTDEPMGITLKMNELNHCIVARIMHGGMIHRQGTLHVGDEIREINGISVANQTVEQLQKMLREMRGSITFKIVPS

DLG2_2, Q15700 = molecular target: DLG2_2, Q15700
DLG2_3, Q15700 = molecular target: DLG2_3, Q15700
GRID2IP_1, A4D2P6 = molecular target: GRID2IP_1, A4D2P6
GRID2IP_1, A4D2P6, sequence (A4D2P6 1-87): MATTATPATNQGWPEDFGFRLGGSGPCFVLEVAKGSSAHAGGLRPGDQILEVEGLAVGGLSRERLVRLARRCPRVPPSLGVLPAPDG

GRIP1_2, Q9Y3R0 = molecular target: T3, GRIP1_2, Q9Y3R0
T3 sequence (Q9Y3R0 145-248, limits assumed, looked up): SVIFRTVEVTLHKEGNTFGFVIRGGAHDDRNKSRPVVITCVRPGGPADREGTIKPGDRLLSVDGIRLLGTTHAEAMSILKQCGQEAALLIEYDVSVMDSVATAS

GRIP1_3, Q9Y3R0 = molecular target: T4, GRIP1_3, Q9Y3R0
T4 sequence (Q9Y3R0 247-346, limits assumed, looked up): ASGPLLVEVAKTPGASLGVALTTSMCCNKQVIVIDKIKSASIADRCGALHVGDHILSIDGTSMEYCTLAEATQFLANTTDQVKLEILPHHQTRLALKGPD

GRIP2_6, Q9C0E4 = molecular target: GRIP2_6, Q9C0E4
GRIP2_6, Q9C0E4, sequence (Q9C0E4 648-740): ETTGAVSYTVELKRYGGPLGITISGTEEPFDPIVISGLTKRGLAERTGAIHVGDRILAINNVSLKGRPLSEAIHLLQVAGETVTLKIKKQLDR

HTRA1, Q92743 = molecular target: HTRA1, Q92743
HTRA1, Q92743, sequence (Q92743 360-477): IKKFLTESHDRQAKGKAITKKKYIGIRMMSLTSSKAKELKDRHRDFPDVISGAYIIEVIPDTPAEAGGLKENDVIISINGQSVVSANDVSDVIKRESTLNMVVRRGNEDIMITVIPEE

IL16_4, Q14005 = molecular target: IL16_4, Q14005
IL16_4, Q14005, sequence (Q14005 1229-1329): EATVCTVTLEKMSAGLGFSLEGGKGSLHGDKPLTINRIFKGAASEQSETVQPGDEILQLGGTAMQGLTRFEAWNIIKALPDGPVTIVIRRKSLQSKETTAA

Inadl_10, Q8NI35 = molecular target: Inadl_10, Q8NI35
Inadl_10, Q8NI35, sequence (Q8NI35 1673-1763): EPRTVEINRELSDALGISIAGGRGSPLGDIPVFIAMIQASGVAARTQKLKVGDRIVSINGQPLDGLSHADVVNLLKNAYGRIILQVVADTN

Inadl_2, Q8NI35 = molecular target: Inadl_2, Q8NI35
Inadl_2, Q8NI35, sequence (Q8NI35 238-335): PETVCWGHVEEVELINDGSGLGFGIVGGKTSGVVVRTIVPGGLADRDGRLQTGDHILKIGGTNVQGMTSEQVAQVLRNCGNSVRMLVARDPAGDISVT

LIN7C, Q9NUP9 = molecular target: T5, LIN7C, Q9NUP9
T5 sequence (Q9NUP9 88-185, limits assumed, looked up): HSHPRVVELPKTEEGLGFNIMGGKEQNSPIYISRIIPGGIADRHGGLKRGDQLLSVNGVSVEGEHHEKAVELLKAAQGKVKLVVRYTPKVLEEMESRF

LNX1_2, Q8TBB1 = molecular target: LNX1_2, Q8TBB1
LNX1_2, Q8TBB1, sequence (Q8TBB1 371-470): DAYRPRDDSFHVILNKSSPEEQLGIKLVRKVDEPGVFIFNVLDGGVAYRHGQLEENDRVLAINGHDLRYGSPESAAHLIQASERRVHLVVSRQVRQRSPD

MAGI1_1, Q96QZ7 = molecular target: MAGI1_1, Q96QZ7
MAGI1_1, Q96QZ7, sequence (Q96QZ7 1-106): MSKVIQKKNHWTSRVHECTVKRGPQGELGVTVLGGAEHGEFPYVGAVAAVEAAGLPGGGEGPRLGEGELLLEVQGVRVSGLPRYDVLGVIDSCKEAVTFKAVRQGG

NHERF3_1, Q5T2W1 = molecular target: T6, NHERF3_1, Q5T2W1
T6 sequence (Q5T2W1 4-100, limits assumed, looked up): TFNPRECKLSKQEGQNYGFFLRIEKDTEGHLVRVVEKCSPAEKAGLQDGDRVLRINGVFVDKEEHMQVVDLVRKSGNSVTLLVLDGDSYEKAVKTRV

NHERF3_3, Q5T2W1 = molecular target: T7, NHERF3_3, Q5T2W1
T7 sequence (Q5T2W1 238-333, limits assumed, looked up): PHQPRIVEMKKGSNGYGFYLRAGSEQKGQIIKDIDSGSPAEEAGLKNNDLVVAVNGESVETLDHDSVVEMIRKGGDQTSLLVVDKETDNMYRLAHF

PDZRN4_1, Q6ZMN7 = molecular target: PDZRN4_1, Q6ZMN7
PDZRN4_1, Q6ZMN7, sequence (Q6ZMN7 213-318): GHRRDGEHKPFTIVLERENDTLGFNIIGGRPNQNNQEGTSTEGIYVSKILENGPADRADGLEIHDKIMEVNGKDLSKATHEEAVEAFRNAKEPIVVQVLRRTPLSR

RADIL, Q96JH8 = molecular target: T8, RADIL, Q96JH8
T8 sequence (Q96JH8 971-1071, limits assumed, looked up): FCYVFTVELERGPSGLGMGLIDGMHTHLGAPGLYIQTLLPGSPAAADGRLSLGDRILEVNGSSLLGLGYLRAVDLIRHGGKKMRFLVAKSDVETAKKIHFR

RHPN1, Q8TCX5 = molecular target: T9, RHPN1, Q8TCX5
T9 sequence (Q8TCX5 508-602, limits assumed, looked up): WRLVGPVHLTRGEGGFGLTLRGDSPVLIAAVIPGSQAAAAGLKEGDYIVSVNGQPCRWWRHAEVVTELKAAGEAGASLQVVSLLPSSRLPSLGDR

SNTG1, Q9NSN8 = molecular target: T10, SNTG1, Q9NSN8
T10 sequence (Q9NSN8 52-150, limits assumed, looked up): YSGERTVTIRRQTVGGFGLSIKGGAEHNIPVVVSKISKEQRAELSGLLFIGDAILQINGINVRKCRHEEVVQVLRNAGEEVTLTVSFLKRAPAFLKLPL

SYNJ2BP, P57105 = molecular target: T11, SYNJ2BP, P57105
T11 sequence (P57105 8-110, limits assumed, looked up): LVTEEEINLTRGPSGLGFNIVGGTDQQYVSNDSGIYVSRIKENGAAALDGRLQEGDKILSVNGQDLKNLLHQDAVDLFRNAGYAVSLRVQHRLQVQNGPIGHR

TJP1_2, Q07157 = molecular target: TJP1_2, Q07157
TJP1_2, Q07157, sequence (Q07157 181-274): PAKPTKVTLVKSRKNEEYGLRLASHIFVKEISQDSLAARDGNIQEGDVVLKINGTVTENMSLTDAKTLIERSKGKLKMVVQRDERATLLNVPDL

TJP3_3, O95049 = molecular target: T12, TJP3_3, O95049
T12 sequence (O95049 375-456, limits assumed, looked up): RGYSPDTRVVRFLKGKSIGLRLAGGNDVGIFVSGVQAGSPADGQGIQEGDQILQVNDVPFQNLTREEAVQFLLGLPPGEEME

pKd (APBA2_1, Q99767) | pKd (ARHGEF11, O15085) | pKd (ARHGEF12, Q9NZN5-2) | pKd (CASK, O14936) | pKd (DLG2_2, Q15700) | pKd (DLG2_3, Q15700) | pKd (GRID2IP_1, A4D2P6) | pKd (GRIP1_2, Q9Y3R0) | pKd (GRIP1_3, Q9Y3R0) | pKd (GRIP2_6, Q9C0E4) | pKd (HTRA1, Q92743) | pKd (IL16_4, Q14005) | pKd (Inadl_10, Q8NI35) | pKd (Inadl_2, Q8NI35) | pKd (LIN7C, Q9NUP9) | pKd (LNX1_2, Q8TBB1) | pKd (MAGI1_1, Q96QZ7) | pKd (NHERF3_1, Q5T2W1) | pKd (NHERF3_3, Q5T2W1) | pKd (PDZRN4_1, Q6ZMN7) | other results | Binder
below the threshold | below the threshold | below the threshold | below the threshold | below the threshold | below the threshold | below the threshold | below the threshold | below the threshold | below the threshold | below the threshold | below the threshold | below the threshold | below the threshold | below the threshold | below the threshold | below the threshold | below the threshold | below the threshold | below the threshold | pKd (RADIL, Q96JH8): below the threshold; pKd (RHPN1, Q8TCX5): below the threshold; pKd (SNTG1, Q9NSN8): below the threshold; pKd (SYNJ2BP, P57105): below the threshold; pKd (TJP1_2, Q07157): 4.53; pKd (TJP3_3, O95049): below the threshold | SRPRPDDLEI [GJA1, P17302]
below the threshold | below the threshold | below the threshold | below the threshold | below the threshold | below the threshold | below the threshold | below the threshold | below the threshold | below the threshold | 3.98 | below the threshold | below the threshold | below the threshold | below the threshold | below the threshold | below the threshold | below the threshold | below the threshold | below the threshold | pKd (RADIL, Q96JH8): below the threshold; pKd (RHPN1, Q8TCX5): below the threshold; pKd (SNTG1, Q9NSN8): below the threshold; pKd (SYNJ2BP, P57105): below the threshold; pKd (TJP1_2, Q07157): 3.59; pKd (TJP3_3, O95049): below the threshold | NVYGTESVKI [GRIA3, P42263]
